In data set [1] the test system is HeLa Kyoto. The data set can be described thus: thermal stability score vs G1/S (z-score of summed log2 fold changes over temperatures); higher = more thermally stable than in G1/S.
Data set [2] has as its system HeLa Kyoto. The data set can be described thus: solubility change mitosis vs G1/S (difference of NP-40 vs SDS log2 ratios) (log2 ratio difference); higher = more soluble in mitosis.
Data set [3] relates to HeLa Kyoto. The data set can be described thus: solubility in G1/S (NP-40 vs SDS abundance) (log2 ratio); higher = more soluble. The following applies: cell cycle stage: G1/S.
For data set [4], the system named is HeLa Kyoto. The data set can be described thus: melting temperature (median over replicates), in situ; higher = more thermally stable.
[5] abbreviates: cell cycle stage: early G1 (4.5 h after nocodazole release).

The text below walks through data of the supplement of paper PMC5998384.
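Throughout, for melting temperature (median over replicates), in situ: HeLa Kyoto cells synchronized by double thymidine or nocodazole block, proteins quantified by TMT10plex mass spectrometry, three independent biological replicates.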
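Throughout, for solubility change mitosis vs G1/S (difference of NP-40 vs SDS log2 ratios): synchronized HeLa Kyoto cells (double thymidine block for G1/S, nocodazole release for mitosis), protein amounts in NP-40 versus SDS lysates quantified by mass spectrometry, three biological replicates.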
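Throughout, for solubility in G1/S (NP-40 vs SDS abundance): HeLa Kyoto cells arrested at G1/S by double thymidine block, proteins quantified by TMT10plex mass spectrometry in mild NP-40 versus SDS extracts, three biological replicates.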
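Throughout, for thermal stability score vs G1/S (z-score of summed log2 fold changes over temperatures): synchronized HeLa Kyoto cells, proteins quantified by TMT10plex mass spectrometry, three biological replicates, mitosis taken 0.5 h after nocodazole release, G1/S directly after double thymidine block.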

On to “MAEPTVCSFLTKVLCAHGGRMFLKDLRGHVELSEARLRDVLQRAGPERFLLQEVETQEGLGDAEAEAAAGAVGGGGTSAWRVVAVSSVRLCARYQRGECQACDQLHFCRRHMLGKCPNRDCWSTCTLSHDIHTPVNMQVLKSHGLFGLNENQLRILLLQNDPCLLPEVCLLYNKGEALYGYCNLKDKCNKFHVCKSFVKGECKLQTCKRSHQLIHAASLKLLQDQGLNIPSVVNFQIISTYKHMKLHKMLENTDNSSPSTEHSQGLEKQGVHAAGAAEAGPLASVPAQSAKKPCPVSCEK [ZC3HAV1L]”, for which the values for the thermal stability score in data set [1] (setting [5]) and in data set [1] (cell cycle stage: mitosis) were 0.166 and -0.0104, respectively. The “solubility change mitosis (log2)” value in data set [2] is -0.0672. Also, the “solubility in G1/S (log2)” value in data set [3] came to 0.135. Further, the melting temperature in data set [4] (cell cycle stage: G1/S) and in data set [4] (cell cycle stage: mitosis) was 50.2 °C in each case.

As to “MAEQATKSVLFVCLGNICRSPIAEAVFRKLVTDQNISENWRVDSAATSGYEIGNPPDYRGQSCMKRHGIPMSHVARQITKEDFATFDYILCMDESNLRDLNRKSNQVKTCKAKIELLGSYDPQKQLIIEDPYYGNDSDFETVYQQCVRCCRAFLEKAH [ACP1]”, the thermal stability score is -0.241 in data set [1] (setting [5]) and -0.21 in data set [1] (cell cycle stage: mitosis). In data set [2], the “solubility change mitosis (log2)” value is -0.0468. In addition, in data set [3], the “solubility in G1/S (log2)” value came to 0.178. The values for the melting temperature in data set [4] (cell cycle stage: G1/S) and in data set [4] (cell cycle stage: mitosis) were 50.2 °C and 51 °C, respectively.

Consider “MAEQLSPGKAVDQVCTFLFKKPGRKGAAGRRKRPACDPEPGESGSSSDEGCTVVRPEKKRVTHNPMIQKTRDSGKQKAAYGDLSSEEEEENEPESLGVVYKSTRSAKPVGPEDMGATAVYELDTEKERDAQAIFERSQKIQEELRGKEDDKIYRGINNYQKYMKPKDTSMGNASSGMVRKGPIRAPEHLRATVRWDYQPDICKDYKETGFCGFGDSCKFLHDRSDYKHGWQIERELDEGRYGVYEDENYEVGSDDEEIPFKCFICRQSFQNPVVTKCRHYFCESCALQHFRTTPRCYVCDQQTNGVFNPAKELIAKLEKHRATGEGGASDLPEDPDEDAIPIT [RNF113A]”, for which the thermal stability score is -3.12 in data set [1] (setting [5]) and -4.15 in data set [1] (cell cycle stage: mitosis). Moreover, the “solubility change mitosis (log2)” value in data set [2] stood at 0.0489. The “solubility in G1/S (log2)” value in data set [3] was 0.17. Also, the melting temperature in data set [4] (cell cycle stage: G1/S) came out at 55.6 °C; in data set [4] (cell cycle stage: mitosis), 63.5 °C.

With “MAERGGDGGESERFNPGELRMAQQQALRFRGPAPPPNAVMRGPPPLMRPPPPFGMMRGPPPPPRPPFGRPPFDPNMPPMPPPGGIPPPMGPPHLQRPPFMPPPMSSMPPPPGMMFPPGMPPVTAPGTPALPPTEEIWVENKTPDGKVYYYNARTRESAWTKPDGVKVIQQSELTPMLAAQAQVQAQAQAQAQAQAQAQAQAQAQAQAQAQAQAQAQAQAQAQAQAQAQAQAQAQAQAQAQAQVQAQVQAQVQAQAVGASTPTTSSPAPAVSTSTSSSTPSSTTSTTTTATSVAQTVSTPTTQDQTPSSAVSVATPTVSVSTPAPTATPVQTVPQPHPQTLPPAVPHSVPQPTTAIPAFPPVMVPPFRVPLPGMPIPLPGVAMMQIVSCPYVKTVATTKTGVLPGMAPPIVPMIHPQVAIAASPATLAGATAVSEWTEYKTADGKTYYYNNRTLESTWEKPQELKEKEKLEEKIKEPIKEPSEEPLPMETEEEDPKEEPIKEIKEEPKEEEMTEEEKAAQKAKPVATAPIPGTPWCVVWTGDERVFFYNPTTRLSMWDRPDDLIGRADVDKIIQEPPHKKGMEELKKLRHPTPTMLSIQKWQFSMSAIKEEQELMEEINEDEPVKAKKRKRDDNKDIDSEKEAAMEAEIKAARERAIVPLEARMKQFKDMLLERGVSAFSTWEKELHKIVFDPRYLLLNPKERKQVFDQYVKTRAEEERREKKNKIMQAKEDFKKMMEEAKFNPRATFSEFAAKHAKDSRFKAIEKMKDREALFNEFVAAARKKEKEDSKTRGEKIKSDFFELLSNHHLDSQSRWSKVKDKVESDPRYKAVDSSSMREDLFKQYIEKIAKNLDSEKEKELERQARIEASLREREREVQKARSEQTKEIDREREQHKREEAIQNFKALLSDMVRSSDVSWSDTRRTLRKDHRWESGSLLEREEKEKLFNEHIEALTKKKREHFRQLLDETSAITLTSTWKEVKKIIKEDPRCIKFSSSDRKKQREFEEYIRDKYITAKADFRTLLKETKFITYRSKKLIQESDQHLKDVEKILQNDKRYLVLDCVPEERRKLIVAYVDDLDRRGPPPPPTASEPTRRSTK [TCERG1]”, the thermal stability score in data set [1] (setting [5]) was 2.7; in data set [1] (cell cycle stage: mitosis), 5.16. The “solubility change mitosis (log2)” value in data set [2] was -0.0317. Further, the “solubility in G1/S (log2)” value in data set [3] was found to be 0.0535. Also, the results for the melting temperature in data set [4] (cell cycle stage: G1/S) and in data set [4] (cell cycle stage: mitosis) were 48.5 °C and 48.8 °C, respectively.

In the case of “MAERQEEQRGSPPLRAEGKADAEVKLILYHWTHSFSSQKVRLVIAEKALKCEEHDVSLPLSEHNEPWFMRLNSTGEVPVLIHGENIICEATQIIDYLEQTFLDERTPRLMPDKESMYYPRVQHYRELLDSLPMDAYTHGCILHPELTVDSMIPAYATTRIRSQIGNTESELKKLAEENPDLQEAYIAKQKRLKSKLLDHDNVKYLKKILDELEKVLDQVETELQRRNEETPEEGQQPWLCGESFTLADVSLAVTLHRLKFLGFARRNWGNGKRPNLETYYERVLKRKTFNKVLGHVNNILISAVLPTAFRVAKKRAPKVLGTTLVVGLLAGVGYFAFMLFRKRLGSMILAFRPRPNYF [GDAP1]”, the thermal stability score in data set [1] (setting [5]) and in data set [1] (cell cycle stage: mitosis) was 1.45 each time. Moreover, the “solubility change mitosis (log2)” value in data set [2] is -0.1. Also, the “solubility in G1/S (log2)” value in data set [3] was -0.194. The melting temperature is 54 °C in data set [4] (cell cycle stage: G1/S) and 52 °C in data set [4] (cell cycle stage: mitosis).

As to “MAESDWDTVTVLRKKGPTAAQAKSKQAILAAQRRGEDVETSKKWAAGQNKQHSITKNTAKLDRETEELHHDRVTLEVGKVIQQGRQSKGLTQKDLATKINEKPQVIADYESGRAIPNNQVLGKIERAIGLKLRGKDIGKPIEKGPRAK [EDF1]”, the thermal stability score is -4.76 in data set [1] (setting [5]) and -6.66 in data set [1] (cell cycle stage: mitosis). In addition, in data set [2], the “solubility change mitosis (log2)” value is 0.78. The “solubility in G1/S (log2)” value in data set [3] came out at 0.119. In addition, the melting temperature in data set [4] (cell cycle stage: G1/S) is 55.2 °C; in data set [4] (cell cycle stage: mitosis), 52.7 °C.
